Laboratory results from article PMC10539383, “Recognition and cleavage mechanism of intron-containing pre-tRNA by human TSEN endonuclease complex”.

Target: T1, TSEN2;TSEN34;TSEN15;TSEN54 (Homo sapiens;Homo sapiens;Homo …, UniProt Q8NCE0;Q9BSV6;Q8WW01;Q7Z6J9 1-465;1-310;1-171;1-526, |||)
T1 sequence 1: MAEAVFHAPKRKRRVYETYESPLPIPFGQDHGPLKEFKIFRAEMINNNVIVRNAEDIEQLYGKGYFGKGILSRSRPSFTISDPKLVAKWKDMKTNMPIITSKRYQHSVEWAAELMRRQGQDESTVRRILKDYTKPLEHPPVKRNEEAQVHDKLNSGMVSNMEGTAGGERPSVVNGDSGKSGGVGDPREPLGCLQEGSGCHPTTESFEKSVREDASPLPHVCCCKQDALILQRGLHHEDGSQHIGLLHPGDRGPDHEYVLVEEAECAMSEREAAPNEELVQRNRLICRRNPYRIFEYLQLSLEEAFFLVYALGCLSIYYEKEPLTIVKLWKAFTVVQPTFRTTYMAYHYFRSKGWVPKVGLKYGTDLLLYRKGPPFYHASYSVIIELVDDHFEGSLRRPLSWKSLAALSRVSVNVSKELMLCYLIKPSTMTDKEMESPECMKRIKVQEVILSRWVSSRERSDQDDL
T1 sequence 2: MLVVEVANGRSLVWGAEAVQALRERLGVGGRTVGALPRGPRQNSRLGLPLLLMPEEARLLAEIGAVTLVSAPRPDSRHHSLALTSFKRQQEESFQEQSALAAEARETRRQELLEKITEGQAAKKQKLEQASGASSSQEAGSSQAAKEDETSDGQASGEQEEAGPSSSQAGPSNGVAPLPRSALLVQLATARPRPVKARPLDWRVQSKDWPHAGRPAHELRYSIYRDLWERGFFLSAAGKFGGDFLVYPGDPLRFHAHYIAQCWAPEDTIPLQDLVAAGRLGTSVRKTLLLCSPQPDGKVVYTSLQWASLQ
T1 sequence 3: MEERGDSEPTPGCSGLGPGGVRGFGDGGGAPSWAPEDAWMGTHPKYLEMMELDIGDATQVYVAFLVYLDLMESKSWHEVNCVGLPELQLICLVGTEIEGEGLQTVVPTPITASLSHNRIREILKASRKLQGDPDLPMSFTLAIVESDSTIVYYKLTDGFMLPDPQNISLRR
T1 sequence 4: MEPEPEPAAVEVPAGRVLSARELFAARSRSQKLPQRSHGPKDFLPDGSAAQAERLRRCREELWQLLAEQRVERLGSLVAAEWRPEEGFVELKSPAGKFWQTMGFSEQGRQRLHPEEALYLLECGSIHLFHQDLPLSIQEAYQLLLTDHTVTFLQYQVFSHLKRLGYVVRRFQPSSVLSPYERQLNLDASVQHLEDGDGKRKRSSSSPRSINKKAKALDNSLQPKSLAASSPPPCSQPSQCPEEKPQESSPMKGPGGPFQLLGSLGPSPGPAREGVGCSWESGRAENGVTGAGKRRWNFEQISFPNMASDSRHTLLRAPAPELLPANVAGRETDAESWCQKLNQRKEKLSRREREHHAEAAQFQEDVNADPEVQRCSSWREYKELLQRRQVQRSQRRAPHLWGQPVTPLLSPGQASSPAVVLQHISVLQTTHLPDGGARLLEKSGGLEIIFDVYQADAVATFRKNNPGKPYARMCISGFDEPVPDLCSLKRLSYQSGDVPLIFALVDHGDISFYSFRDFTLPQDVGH
Assay: cryo-EM structure (3.2 A); wild-type active complex; Protein (EM) buffer: 20 mM HEPES pH 8.0, 150 mM NaCl, 1 mM MgCl2, 5 mM DTT; complex formation conditions and temperature not in the material
Conditions: protein: recombinant;recombinant;recombinant;recombinant; tags: none stated;none stated;N-terminal 6xHis;N-terminal GST removed by TEV; copies: 1;1;1;1; pre-tRNA fold, single strand with anticodon-intron stem and 3' bulge

B1: pre-tRNAArgTCT (structured_RNA)
RNA: GGGGGCUCUGUGGCGCAAUGGAUAGCGCAUUGGACUUCUAGUGACGAAUAGAGCAAUUCAAAGGUUGUGGGUUCGAAUCCCACCAGAGUCG
binding result: binds
